In experiment [1] the target is CCM1-K8. Briefly: ITC; GST-tagged fragments from PTB domains and HIS-tagged NPXY motifs, purified; Table 5 heads CCM1-K8 and CCM1-K2 as 'Ligand'; conditions not stated (as in ref. 20). (In ITC the heat of successive injections is recorded.)
The target in another experiment is CCM1-K2. Described as above.
Experiment [2] addresses CCM1-K8. Briefly: BLI; GST-tagged fragments from PTB domains and HIS-tagged NPXY motifs, purified; Table 5 heads CCM1-K8 as 'Ligand'; who was immobilised and the conditions are not stated (as in ref. 20). Background: In BLI a coated tip is dipped into the sample, and binding shifts an interference pattern.

For the substance “CCM2-EX6 (from UniProt Q9BSQ5 1-444) (domain or fragment)”, the figures for the Kd with CCM1-K8 [1], in the experiment with CCM1-K2 and with CCM1-K8 [2] were 1.99 µM, 6.45 µM and 4.06 µM, respectively.
